Results: patent US20230050449A1, “METHODS FOR TREATING CANCER USING A COMBINATION OF A PD-1 ANTAGONIST, AN ILT4 ANTAGONIST, AND CHEMOTHERAPEUTIC AGENTS” (Merck Sharp & Dohme LLC, priority 2019, published 2023)

Test system: participants with advanced solid tumors
Assay: Phase 1 open label, multi-arm, multi-center study of MK-4830 as monotherapy or in combination with pembrolizumab (NCT03564691): safety and tolerability
Format: in vivo, human
Description: A phase 1 open label, multi-arm, multi-center study of an anti-ILT4 antibody (“MK-4830”) as monotherapy or in combination with pembrolizumab for participants with advanced solid tumors has been ongoing (NCT03564691).
At the time of the May 10, 2019 data cutoff, a total of 51 participants had received at least 1 dose of MK-4830. In the ongoing MK-4830 monotherapy phase, MK-4830 monotherapy had reached the maximum planned dose level of 1600 mg. In the ongoing MK-4830 plus pembrolizumab combination phase, MK-4830 dose level had reached a maximum dose of 800 mg.
The target dose limiting toxicity (DLT) rate was not reached in any of the cohorts and the maximum tolerated dose (MTD) was not defined.
The most common study-drug related AEs in all participants were arthralgia (9.8%), fatigue (9.8%), decreased appetite (7.8%), diarrhea (7.8%), and pruritus (7.8%). There was one episode of transient Grade 3 blood pressure increase at the 1600 mg dose level in the MK-4830 monotherapy cohort. There were no Grade 4 or 5 drug-related AEs or SAEs.

[1] = of the total 51 treated participants, preliminary data

## MK-4830: anti-ILT4 antibody; light chain SEQ ID NO:5, heavy chain SEQ ID NO:10 (Table 4)
1600 mg dose level, MK-4830 monotherapy cohort
  episodes of transient Grade 3 blood pressure increase: one episode
51 treated participants, preliminary data
  grade of the majority of drug-related AEs: Grade 1
All 51 treated participants
  Grade 4 or 5 drug-related AEs or SAEs: no
All participants (51 treated)
  study-drug related AE: arthralgia: 9.8%
  study-drug related AE: decreased appetite: 7.8%
  study-drug related AE: diarrhea: 7.8%
  study-drug related AE: fatigue: 9.8%
  study-drug related AE: pruritus: 7.8%
Any of the cohorts, monotherapy up to 1600 mg, combination with pembrolizumab up to 800 mg, May 10, 2019 data cutoff
  target dose limiting toxicity (DLT) rate: not reached
Monotherapy up to 1600 mg, combination with pembrolizumab up to 800 mg, May 10, 2019 data cutoff
  maximum tolerated dose (MTD): not defined
[1]
  participants with one or more drug-related AEs (number): 26
  participants with one or more drug-related AEs (percent): 51%
